No end group written: not given here. cellulose‑PEG membrane = cellulose-PEG membrane solid support to which peptides are linked at the C-terminus as "dots"

Sequence of N-terminally flag-tagged full-length S. cerevisiae Ubr1 (P19812 whole entry): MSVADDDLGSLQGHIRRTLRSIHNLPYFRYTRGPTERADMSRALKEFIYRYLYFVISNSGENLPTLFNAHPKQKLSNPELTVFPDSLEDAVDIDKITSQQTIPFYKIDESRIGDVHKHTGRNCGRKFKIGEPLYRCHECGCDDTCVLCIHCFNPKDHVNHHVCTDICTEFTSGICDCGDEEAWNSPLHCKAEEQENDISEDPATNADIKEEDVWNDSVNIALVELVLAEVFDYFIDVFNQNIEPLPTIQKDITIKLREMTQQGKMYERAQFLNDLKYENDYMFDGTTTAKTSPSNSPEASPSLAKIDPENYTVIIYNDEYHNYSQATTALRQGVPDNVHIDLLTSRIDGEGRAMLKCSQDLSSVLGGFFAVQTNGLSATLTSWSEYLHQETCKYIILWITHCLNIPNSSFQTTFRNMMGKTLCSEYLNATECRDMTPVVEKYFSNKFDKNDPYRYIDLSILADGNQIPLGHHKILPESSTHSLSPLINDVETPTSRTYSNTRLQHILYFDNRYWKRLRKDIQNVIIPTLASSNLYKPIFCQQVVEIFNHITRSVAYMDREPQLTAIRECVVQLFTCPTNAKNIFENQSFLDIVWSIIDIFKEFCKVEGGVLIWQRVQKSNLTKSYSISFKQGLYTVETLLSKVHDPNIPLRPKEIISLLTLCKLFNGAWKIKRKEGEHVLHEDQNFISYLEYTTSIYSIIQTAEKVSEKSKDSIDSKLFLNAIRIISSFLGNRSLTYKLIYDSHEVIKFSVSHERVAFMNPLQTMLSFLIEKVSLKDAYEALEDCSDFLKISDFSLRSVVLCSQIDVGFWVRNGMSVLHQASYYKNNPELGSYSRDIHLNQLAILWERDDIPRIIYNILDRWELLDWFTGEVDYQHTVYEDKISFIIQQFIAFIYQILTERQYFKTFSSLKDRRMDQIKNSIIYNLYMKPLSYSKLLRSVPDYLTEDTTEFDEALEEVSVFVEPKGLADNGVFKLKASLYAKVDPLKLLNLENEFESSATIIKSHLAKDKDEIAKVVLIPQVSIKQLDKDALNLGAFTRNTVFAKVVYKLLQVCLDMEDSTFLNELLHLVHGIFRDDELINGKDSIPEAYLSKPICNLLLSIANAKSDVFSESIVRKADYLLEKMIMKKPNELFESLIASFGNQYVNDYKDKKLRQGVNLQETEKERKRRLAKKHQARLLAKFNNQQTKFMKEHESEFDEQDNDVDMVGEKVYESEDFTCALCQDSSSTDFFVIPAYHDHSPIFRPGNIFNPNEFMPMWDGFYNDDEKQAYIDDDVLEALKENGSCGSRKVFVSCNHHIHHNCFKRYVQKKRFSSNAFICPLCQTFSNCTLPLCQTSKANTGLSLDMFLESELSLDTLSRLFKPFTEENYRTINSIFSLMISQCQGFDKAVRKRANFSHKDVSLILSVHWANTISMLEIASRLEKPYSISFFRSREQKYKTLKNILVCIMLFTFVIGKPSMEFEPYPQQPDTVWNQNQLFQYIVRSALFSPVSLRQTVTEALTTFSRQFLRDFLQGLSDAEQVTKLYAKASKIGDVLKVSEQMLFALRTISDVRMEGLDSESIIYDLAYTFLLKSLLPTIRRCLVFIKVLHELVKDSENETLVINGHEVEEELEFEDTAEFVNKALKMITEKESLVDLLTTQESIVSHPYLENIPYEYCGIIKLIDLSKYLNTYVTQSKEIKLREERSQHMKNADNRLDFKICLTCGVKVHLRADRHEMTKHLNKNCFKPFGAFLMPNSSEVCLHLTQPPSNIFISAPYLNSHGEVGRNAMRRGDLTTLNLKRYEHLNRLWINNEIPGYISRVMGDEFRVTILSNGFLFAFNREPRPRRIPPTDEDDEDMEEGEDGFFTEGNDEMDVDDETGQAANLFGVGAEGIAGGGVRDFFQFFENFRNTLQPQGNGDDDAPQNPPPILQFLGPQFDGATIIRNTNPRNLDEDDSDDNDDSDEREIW

This test has as its target N-terminally flag-tagged full-length S. cerevisiae Ubr1 (S. cerevisiae, UniProt P19812 1-1950). Kind of test: peptide or protein array.
Take MVGSGAWLLP-{cellulose‑PEG membrane} [Met-Val-e^K(3–10) peptide]: the binding result was “binds”.
With MIGSGAWLLP-{cellulose‑PEG membrane} [Met-Ile-e^K(3–10) peptide], the binding result is “binds”.
For MYGSGAWLLP-{cellulose‑PEG membrane} [Met-Tyr-e^K(3–10) peptide] the value was “binds”.
As for MFGSGAWLLP-{cellulose‑PEG membrane} [Met-Phe-e^K(3–10) peptide], the binding result was “binds”.
Turning to MWGSGAWLLP-{cellulose‑PEG membrane} [Met-Trp-e^K(3–10) peptide], the binding result is listed as “binds”.
For MAGSGAWLLP-{cellulose‑PEG membrane} [Met-Ala-e^K(3–10) peptide], the binding result is on record as “binds”.

The record behind these values is paper PMC3988316 (Cell, 2013).
